According to paper PMC3706463, “The Asymmetric Binding of PGC-1α to the ERRα and ERRγ Nuclear Receptor Homodimers Involves a Similar Recognition Mechanism” (PLoS ONE, 2013):
Where “and” joins values, the source holds several entries; their conditions need not be identical. Equal entries are not always repeated.

B2: ERRγ LBD (ERRγ 229–458) homodimer (domain or fragment, UniProt P62508 229-458, looked up)
chain: PAKKPYNKIVSHLLVAEPEKIYAMPDPTVPDSDIKALTTLCDLADRELVVIIGWAKHIPGFSTLSLADQMSLLQSAWMEILILGVVYRSLSFEDELVYADDYIMDEDQSKLAGLLDLNNAILQLVKKYKSMKLEKEEFVTLKAIALANSDSMHIEDVEAVQKLQDVLHEALQDYEAGQHMEDPRRAGKMLMTLPLLRQTSTKAVQHFYNIKLEGKVPMHKLFLEMLEAKV
notes: also called ERR LBD; source: cloned in pET15b
B5: ERRα LBD (ERRα-189-423) homodimer (domain or fragment, UniProt P11474 189-423, looked up)
chain: KTAAPVNALVSHLLVVEPEKLYAMPDPAGPDGHLPAVATLCDLFDREIVVTISWAKSIPGFSSLSLSDQMSVLQSVWMEVLVLGVAQRSLPLQDELAFAEDLVLDEEGARAAGLGELGAALLQLVRRLQALRLEREEYVLLKALALANSDSVHIEDAEAVEQLREALHEALLEYEAGRAGPGGGAERRRAGRLLLTLPLLRQTAGKVLAHFYGVKLEGKVPMHKLFLEMLEAMMD
notes: also called ERR LBD; source: cloned in pET24b
B6: ERRα LBD (189-423) homodimer with uncleaved His6 tag (domain or fragment, UniProt P11474 189-423, looked up)
chain: KTAAPVNALVSHLLVVEPEKLYAMPDPAGPDGHLPAVATLCDLFDREIVVTISWAKSIPGFSSLSLSDQMSVLQSVWMEVLVLGVAQRSLPLQDELAFAEDLVLDEEGARAAGLGELGAALLQLVRRLQALRLEREEYVLLKALALANSDSVHIEDAEAVEQLREALHEALLEYEAGRAGPGGGAERRRAGRLLLTLPLLRQTAGKVLAHFYGVKLEGKVPMHKLFLEMLEAMMD
notes: source: cloned in pET24b

Experiments:
[1] = target: ERRα LBD (ERRα-189-423) homodimer (UniProt P11474); test: ITC; PGC-1α RID wild type or LxxLL mutant (340-580 µM) injected into 40-70 µM ERR in the cell; 20°C; 20 mM Hepes pH 7.5, 120 mM NaCl, 0.2 % glycerol; one set of sites model
[2] = target: ERRγ LBD (ERRγ 229-458) homodimer (UniProt P62508); test: as above
[3] = target: B5; test: not stated; binding of short PGC-1α peptides to ERR LBDs; told only in the discussion; details: both partners purified
[4] = target: B2; test: as above; details: both partners purified
PGC-1α NTD (1–285) = target: T1, PGC-1α NTD (1–285) (human, UniProt Q9UBK2 1-285); test: SAXS; synchrotron solution scattering (X33 DESY, SWING SOLEIL), direct injection or SEC-coupled; free proteins and complexes; details: both partners purified
T1 construct: PGC-1α, human, residues 1-285, holds motifs L2 and L3; source: cloned in pET24b
T1 sequence (looked up): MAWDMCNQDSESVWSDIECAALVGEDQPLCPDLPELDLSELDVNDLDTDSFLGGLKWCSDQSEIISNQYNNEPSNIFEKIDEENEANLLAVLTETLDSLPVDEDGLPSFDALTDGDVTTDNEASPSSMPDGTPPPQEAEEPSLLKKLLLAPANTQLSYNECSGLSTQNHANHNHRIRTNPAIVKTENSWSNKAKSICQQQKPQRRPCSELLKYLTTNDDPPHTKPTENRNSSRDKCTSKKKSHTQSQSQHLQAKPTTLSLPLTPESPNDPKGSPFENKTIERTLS

[5] = target: the molecule itself; test: native MS; ESI-TOF under non-denaturing conditions, 200 mM ammonium acetate, pH 7.4
[6] = target: B5; test: ITC; MicroCal iTC200, 20°C, pH 7.5, one set of sites model; apparent; details: both partners purified
[7] = target: B2; test: as above; details: both partners purified
[8] = target: T2, ERRγ LBD (ERRγ 229-458) homodimer (UniProt P62508 229-458); test: ITC; PGC-1α RID wild type or LxxLL mutant (340-580 µM) injected into 40-70 µM ERR in the cell; 20°C; 20 mM Hepes pH 7.5, 120 mM NaCl, 0.2 % glycerol; one set of sites model; details: both partners purified
T2 construct: Cloned in pET15b; The His6-tag of ERR was cleaved with thrombin for SAXS; nothing is said for ITC and native PAGE; also called ERR LBD; source: E. coli BL21 (DE3), purified (HisTrap, SEC)
T2 sequence (looked up): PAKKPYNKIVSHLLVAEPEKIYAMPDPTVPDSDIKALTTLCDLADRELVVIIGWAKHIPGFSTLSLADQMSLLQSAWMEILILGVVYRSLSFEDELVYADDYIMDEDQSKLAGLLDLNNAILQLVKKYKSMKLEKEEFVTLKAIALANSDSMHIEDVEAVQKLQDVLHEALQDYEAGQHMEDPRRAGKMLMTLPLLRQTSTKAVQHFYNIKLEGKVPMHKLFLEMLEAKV

[9] = target: T3, ERRα LBD (ERRα-189-423) homodimer (UniProt P11474 189-423); test: as above; details: both partners purified
T3 construct: The His6-tag of ERR was cleaved with thrombin for SAXS and left on ERRα for ESI-MS; nothing is said for ITC and native PAGE; also called ERR LBD; source: E. coli BL21 (DE3), purified (HisTrap, SEC)
T3 sequence (looked up): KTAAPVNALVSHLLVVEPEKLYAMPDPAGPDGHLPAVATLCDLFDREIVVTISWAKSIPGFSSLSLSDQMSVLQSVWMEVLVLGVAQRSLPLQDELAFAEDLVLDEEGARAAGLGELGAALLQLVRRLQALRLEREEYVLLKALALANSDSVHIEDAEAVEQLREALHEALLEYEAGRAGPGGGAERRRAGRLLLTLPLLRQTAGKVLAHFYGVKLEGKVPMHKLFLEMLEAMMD

[10] = target: the molecule itself; test: SAXS; synchrotron solution scattering (X33 DESY, SWING SOLEIL), direct injection or SEC-coupled; free proteins and complexes
[11] = target: B6; test: native MS; ESI-TOF under non-denaturing conditions, 200 mM ammonium acetate, pH 7.4; details: both partners purified
[12] = target: B2; test: as above; details: both partners purified

“PGC-1α RID1 L3m (LLKYL to AAKYL) (from UniProt Q9UBK2 122-235) (domain or fragment)” was tested, and the stoichiometry N [1] was 0.483 and the stoichiometry N [2] was 0.793.

“PGC-1α RID1 L2m (LKKLL to LKKAA) (from UniProt Q9UBK2 122-235) (domain or fragment)” gave a stoichiometry N [1] of 0.846 and a stoichiometry N [2] of 0.605.

B1: short peptide encompassing motif L3 of PGC-1α (peptide)
chain: QQQKPQRRPCSELLKYLTTNDD
modifications: Peptide limits are not printed in the supplied text; taken from the PGC-1α L3 peptide crystallised with ERRα (PDB 3D24, cited in the supplement). Termini unknown.
In the case of B1, the Kd [3] is reported as 4.1 µM and the Kd [4] is reported as 1300 nM.

In the case of B2, the binding result (PGC-1α NTD (1–285)) is reported as “binds” and the “stoichiometry N” value [5] is reported as 2.

B3: PGC-1α RID1 (122–235), wild type (domain or fragment, human, UniProt Q9UBK2 122-235, looked up)
chain: EASPSSMPDGTPPPQEAEEPSLLKKLLLAPANTQLSYNECSGLSTQNHANHNHRIRTNPAIVKTENSWSNKAKSICQQQKPQRRPCSELLKYLTTNDDPPHTKPTENRNSSRDK
modifications: 15N-labelled in the NMR experiments
notes: His6 is named only for RID2; source: cloned in pET24b
B3 showed a Kd [6] of 71 ± 6 nM and a Kd [7] of 53 ± 3 nM.

B4: PGC-1α RID1 (122-235), wild type (domain or fragment, human, UniProt Q9UBK2 122-235, looked up)
chain: EASPSSMPDGTPPPQEAEEPSLLKKLLLAPANTQLSYNECSGLSTQNHANHNHRIRTNPAIVKTENSWSNKAKSICQQQKPQRRPCSELLKYLTTNDDPPHTKPTENRNSSRDK
notes: for ITC, native PAGE and SEC-MALS no cleavage of the PGC-1α tag is told; 15N-labelled for NMR; source: E. coli BL21 (DE3), purified (HisTrap, SEC); not shown: His6, N-terminal, kept
In the case of B4, the “stoichiometry N” value [8] is reported as 0.932 ± 0.001 and the “stoichiometry N” value [9] is reported as 0.94 ± 0.001.

In the case of B5, the “stoichiometry N” value [10] is reported as 2 and 6.

B6 was tested, and the “stoichiometry N” value [5] was 2.

B7: PGC-1α RID2 (122–285) (domain or fragment, human, UniProt Q9UBK2 122-285, looked up)
chain: EASPSSMPDGTPPPQEAEEPSLLKKLLLAPANTQLSYNECSGLSTQNHANHNHRIRTNPAIVKTENSWSNKAKSICQQQKPQRRPCSELLKYLTTNDDPPHTKPTENRNSSRDKCTSKKKSHTQSQSQHLQAKPTTLSLPLTPESPNDPKGSPFENKTIERTLS
modifications: 15N-labelled in the NMR experiments
notes: PGC-1α, human, residues 122-285, holds motifs L2 and L3; also called His6-tagged PGC-1α RID2; source: cloned in pET24b; not shown: His6, N-terminal, kept
For B7, the “stoichiometry N” value [11] was 1 PGC-1α RID2 molecule per ERR homodimer and the “stoichiometry N” value [12] was 1 PGC-1α RID2 molecule per ERR homodimer.

B8: short peptide encompassing motif L2 of PGC-1α (peptide)
chain: EAEEPSLLKKLLLAPANTQ
modifications: Peptide limits are not printed in the supplied text; 137-155 is the commonly used PGC-1α L2 peptide around motif 144-148. Termini unknown.
In the case of B8, the Kd [3] is reported as 6.1 µM and the Kd [4] is reported as 1200 nM.
